Measured values: patent publication US7084111 (UNIVERSITY OF FLORIDA RESEARCH FOUNDATION, dated 2006)
Bridges are numbered along the chain shown (N, C = ends). Where no end group is shown, it is not given here. [ ]: non-standard residue; d: D form. Nle = CCCC[C@H](N)C(=O)O; Dap = NC[C@H](N)C(=O)O

B1: SEQ ID NO:8 (Tyr-c[Asp-His-Arg-Phe-Phe-Asn-Ala-Phe-Dpr]-Tyr) (peptide)
peptide: YDHRFFNAF[Dap]Y-NH2
modifications: lactam 2-10; N-terminus assumed
SMILES: C[C@@H]1NC(=O)[C@H](CC(N)=O)NC(=O)[C@H](Cc2ccccc2)NC(=O)[C@H](Cc2ccccc2)NC(=O)[C@H](CCCNC(=N)N)NC(=O)[C@H](Cc2c[nH]cn2)NC(=O)[C@@H](NC(=O)[C@@H](N)Cc2ccc(O)cc2)CC(=O)NC[C@@H](C(=O)N[C@@H](Cc2ccc(O)cc2)C(N)=O)NC(=O)[C@H](Cc2ccccc2)NC1=O
B2: SEQ ID NO:17 (Ac-Ser-Tyr-Ser-Nle-Glu-His-Arg-DPhe-Phe-Gly-Lys-Pro-Val-NH2) (peptide)
peptide: Ac-SYS[Nle]EHR[dF]FGKPV-NH2
SMILES: CCCC[C@H](NC(=O)[C@H](CO)NC(=O)[C@H](Cc1ccc(O)cc1)NC(=O)[C@H](CO)NC(C)=O)C(=O)N[C@@H](CCC(=O)O)C(=O)N[C@@H](Cc1c[nH]cn1)C(=O)N[C@@H](CCCNC(=N)N)C(=O)N[C@H](Cc1ccccc1)C(=O)N[C@@H](Cc1ccccc1)C(=O)NCC(=O)N[C@@H](CCCCN)C(=O)N1CCC[C@H]1C(=O)N[C@H](C(N)=O)C(C)C
B3: SEQ ID NO:1 (Tyr-c[Cys-Arg-Phe-DPhe-Asn-Ala-Phe-Cys]-Tyr) (peptide)
peptide: YCRF[dF]NAFCY-NH2
modifications: disulfide 2-9; N-terminus assumed
SMILES: C[C@@H]1NC(=O)[C@H](CC(N)=O)NC(=O)[C@@H](Cc2ccccc2)NC(=O)[C@H](Cc2ccccc2)NC(=O)[C@H](CCCNC(=N)N)NC(=O)[C@@H](NC(=O)[C@@H](N)Cc2ccc(O)cc2)CSSC[C@@H](C(=O)N[C@@H](Cc2ccc(O)cc2)C(N)=O)NC(=O)[C@H](Cc2ccccc2)NC1=O
B4: SEQ ID NO:39 (Tyr-c[Asp-His-DPhe-Arg-Nal(2′)-Asn-Ala-Phe-Dpr]-Tyr) (peptide)
peptide: YDHXRXNAFXY
modifications: Asp-Dpr side chain lactam bridge; Dpr; DPhe; Nal(2′); C-terminal amide (amide resin)
B5: SEQ ID NO:40 (Tyr-c[Asp-His-DPhe-Arg-DNal(2′)-Asn-Ala-Phe-Dpr]-Tyr) (peptide)
peptide: YDHXRXNAFXY
modifications: Asp-Dpr side chain lactam bridge; Dpr; DPhe; DNal(2′); C-terminal amide (amide resin)
B6: SEQ ID NO:41 (Tyr-c[Asp-His-DPhe-Arg-Bip-Asn-Ala-Phe-Dpr]-Tyr) (peptide)
peptide: YDHXRXNAFXY
modifications: Asp-Dpr side chain lactam bridge; Dpr; DPhe; Bip; C-terminal amide (amide resin)
B7: SEQ ID NO:42 (Tyr-c[Asp-His-DPhe-Arg-Tic-Asn-Ala-Phe-Dpr]-Tyr) (peptide)
peptide: YDHXRXNAFXY
modifications: Asp-Dpr side chain lactam bridge; Dpr; DPhe; Tic; C-terminal amide (amide resin)
B8: SEQ ID NO:2 (Tyr-c[Asp-Ala-Ala-Ala-Asn-Ala-Phe-Dpr]-Tyr) (peptide)
peptide: YDAAANAF[Dap]Y-NH2
modifications: lactam 2-9; N-terminus assumed
SMILES: C[C@@H]1NC(=O)[C@H](C)NC(=O)[C@@H](NC(=O)[C@@H](N)Cc2ccc(O)cc2)CC(=O)NC[C@@H](C(=O)N[C@@H](Cc2ccc(O)cc2)C(N)=O)NC(=O)[C@H](Cc2ccccc2)NC(=O)[C@H](C)NC(=O)[C@H](CC(N)=O)NC(=O)[C@H](C)NC1=O
B9: SEQ ID NO:4 (Tyr-c[Asp-Trp-Arg-Phe-Asn-Ala-Phe-Dpr]-Tyr) (peptide)
peptide: YDWRFNAF[Dap]Y-NH2
modifications: lactam 2-9; N-terminus assumed
SMILES: C[C@@H]1NC(=O)[C@H](CC(N)=O)NC(=O)[C@H](Cc2ccccc2)NC(=O)[C@H](CCCNC(=N)N)NC(=O)[C@H](Cc2c[nH]c3ccccc23)NC(=O)[C@@H](NC(=O)[C@@H](N)Cc2ccc(O)cc2)CC(=O)NC[C@@H](C(=O)N[C@@H](Cc2ccc(O)cc2)C(N)=O)NC(=O)[C@H](Cc2ccccc2)NC1=O
B10: SEQ ID NO:11 (Ac-Ser-Tyr-Ser-Nle-Tyr-c[Asp-Arg-Phe-Phe-Asn-Ala-Phe-Dpr]-Tyr-Lys-Pro-Val) (peptide)
peptide: Ac-SYS[Nle]YDRFFNAF[Dap]YKPV-NH2
modifications: lactam 6-13
SMILES: CCCC[C@H](NC(=O)[C@H](CO)NC(=O)[C@H](Cc1ccc(O)cc1)NC(=O)[C@H](CO)NC(C)=O)C(=O)N[C@@H](Cc1ccc(O)cc1)C(=O)N[C@H]1CC(=O)NC[C@@H](C(=O)N[C@@H](Cc2ccc(O)cc2)C(=O)N[C@@H](CCCCN)C(=O)N2CCC[C@H]2C(=O)N[C@H](C(N)=O)C(C)C)NC(=O)[C@H](Cc2ccccc2)NC(=O)[C@H](C)NC(=O)[C@H](CC(N)=O)NC(=O)[C@H](Cc2ccccc2)NC(=O)[C@H](Cc2ccccc2)NC(=O)[C@H](CCCNC(=N)N)NC1=O
B11: SEQ ID NO:12 (Ac-Ser-Tyr-Ser-Nle-Glu-His-Ala-Ala-Ala-Gly-Lys-Pro-Val) (peptide)
peptide: Ac-SYS[Nle]EHAAAGKPV-NH2
SMILES: CCCC[C@H](NC(=O)[C@H](CO)NC(=O)[C@H](Cc1ccc(O)cc1)NC(=O)[C@H](CO)NC(C)=O)C(=O)N[C@@H](CCC(=O)O)C(=O)N[C@@H](Cc1c[nH]cn1)C(=O)N[C@@H](C)C(=O)N[C@@H](C)C(=O)N[C@@H](C)C(=O)NCC(=O)N[C@@H](CCCCN)C(=O)N1CCC[C@H]1C(=O)N[C@H](C(N)=O)C(C)C
B12: SEQ ID NO:13 (Ac-Ser-Tyr-Ser-Nle-Glu-Phe-Phe-Arg-Gly-Lys-Pro-Val) (peptide)
peptide: Ac-SYS[Nle]EFFRGKPV-NH2
SMILES: CCCC[C@H](NC(=O)[C@H](CO)NC(=O)[C@H](Cc1ccc(O)cc1)NC(=O)[C@H](CO)NC(C)=O)C(=O)N[C@@H](CCC(=O)O)C(=O)N[C@@H](Cc1ccccc1)C(=O)N[C@@H](Cc1ccccc1)C(=O)N[C@@H](CCCNC(=N)N)C(=O)NCC(=O)N[C@@H](CCCCN)C(=O)N1CCC[C@H]1C(=O)N[C@H](C(N)=O)C(C)C
B13: SEQ ID NO:14 (Ac-Ser-Tyr-Ser-Nle-Glu-His-Phe-Phe-Arg-Gly-Lys-Pro-Val) (peptide)
peptide: Ac-SYS[Nle]EHFFRGKPV-NH2
SMILES: CCCC[C@H](NC(=O)[C@H](CO)NC(=O)[C@H](Cc1ccc(O)cc1)NC(=O)[C@H](CO)NC(C)=O)C(=O)N[C@@H](CCC(=O)O)C(=O)N[C@@H](Cc1c[nH]cn1)C(=O)N[C@@H](Cc1ccccc1)C(=O)N[C@@H](Cc1ccccc1)C(=O)N[C@@H](CCCNC(=N)N)C(=O)NCC(=O)N[C@@H](CCCCN)C(=O)N1CCC[C@H]1C(=O)N[C@H](C(N)=O)C(C)C
B14: SEQ ID NO:19 (Ac-Nle-c[Asp-His-Ala-Ala-Ala-Lys]) (peptide)
peptide: Ac-[Nle]DHAAAK-NH2
modifications: lactam 2-7
SMILES: CCCC[C@H](NC(C)=O)C(=O)N[C@H]1CC(=O)NCCCC[C@@H](C(N)=O)NC(=O)[C@H](C)NC(=O)[C@H](C)NC(=O)[C@H](C)NC(=O)[C@H](Cc2c[nH]cn2)NC1=O
B15: SEQ ID NO:20 (Ac-Nle-c[Asp-His-Arg-Phe-Phe-Lys]) (peptide)
peptide: Ac-[Nle]DHRFFK-NH2
modifications: lactam 2-7
SMILES: CCCC[C@H](NC(C)=O)C(=O)N[C@H]1CC(=O)NCCCC[C@@H](C(N)=O)NC(=O)[C@H](Cc2ccccc2)NC(=O)[C@H](Cc2ccccc2)NC(=O)[C@H](CCCNC(=N)N)NC(=O)[C@H](Cc2c[nH]cn2)NC1=O

molecular target: T1, mouse melanocortin-1 receptor (mouse, UniProt Q01727 1-315); test: cell-based or functional assay
T1 sequence (Q01727 whole entry): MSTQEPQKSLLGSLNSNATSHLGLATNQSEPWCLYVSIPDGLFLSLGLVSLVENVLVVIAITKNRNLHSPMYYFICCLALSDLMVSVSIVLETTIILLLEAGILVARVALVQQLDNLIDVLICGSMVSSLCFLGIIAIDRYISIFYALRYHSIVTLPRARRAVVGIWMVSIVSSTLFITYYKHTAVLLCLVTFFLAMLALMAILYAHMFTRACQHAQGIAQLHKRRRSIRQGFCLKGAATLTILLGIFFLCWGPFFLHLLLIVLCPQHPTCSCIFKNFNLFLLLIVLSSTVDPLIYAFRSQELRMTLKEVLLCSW

| Binder | fold decrease in agonist potency, fold change against SEQ ID NO:3 | agonist potency, fold change against SEQ ID NO:15 |
| --- | --- | --- |
| B1 | 8 fold | – |
| B2 | – | 8 fold |

molecular target: T2, mouse melanocortin-3 receptor (mouse, UniProt P33033 1-323); test: cell-based or functional assay
T2 sequence (P33033 whole entry): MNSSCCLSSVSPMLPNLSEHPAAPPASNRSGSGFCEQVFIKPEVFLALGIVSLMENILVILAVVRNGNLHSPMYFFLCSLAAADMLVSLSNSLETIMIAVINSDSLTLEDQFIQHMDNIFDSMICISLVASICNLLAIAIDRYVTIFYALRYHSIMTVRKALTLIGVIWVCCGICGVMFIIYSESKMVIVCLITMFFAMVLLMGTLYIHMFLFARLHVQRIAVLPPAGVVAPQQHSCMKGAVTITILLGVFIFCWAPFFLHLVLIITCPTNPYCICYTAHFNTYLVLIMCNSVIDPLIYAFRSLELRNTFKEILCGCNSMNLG

| Binder | fold decrease in agonist potency, fold change against SEQ ID NO:15 |
| --- | --- |
| B2 | 13 fold |

molecular target: T1, mouse melanocortin-1 receptor; test: cell-based or functional assay; remark: another data set of the same source

| Binder | EC50 (agonist) | EC50 (agonist; Partial agonist) |
| --- | --- | --- |
| B3 | 61.3 nM | – |
| B4 | 0.53 nM | – |
| B5 | 0.2 nM | – |
| B6 | 11.6 nM | – |
| B7 | 21.6 nM | – |
| B1 | 13300 nM | – |
| B2 | 7.28 nM | – |
| B8 | > 100000 nM | – |
| B9 | 13500 nM | – |
| B10 | 1960 nM | – |
| B11 | > 100000 nM | – |
| B12 | – | 19900 nM |
| B13 | – | 7220 nM |
| Ac-SYS[Nle]EHRFFGKPV-NH2 [SEQ ID NO:15 (Ac-Ser-Tyr-Ser-Nle-Glu-His-Arg-Phe-Phe-Gly-Lys-Pro-Val)] | 59.9 nM | – |
| B14 | > 100000 nM | – |
| B15 | – | 38300 nM |

molecular target: T2, mouse melanocortin-3 receptor; test: cell-based or functional assay; remark: another data set of the same source

| Binder | EC50 (agonist) | pA2 (antagonist) | EC50 (agonist; Partial agonist) |
| --- | --- | --- | --- |
| B3 | > 100000 nM | – | – |
| B4 | 5.56 nM | – | – |
| B5 | 6.5 nM | – | – |
| B6 | 450 nM | – | – |
| B7 | 3400 nM | – | – |
| B2 | 6210 nM | – | – |
| B8 | > 100000 nM | – | – |
| B9 | > 100000 nM | – | – |
| B10 | – | 6.2 | – |
| B11 | > 100000 nM | – | – |
| B12 | > 100000 nM | – | – |
| B13 | – | – | 20500 nM |
| Ac-SYS[Nle]EHRFFGKPV-NH2 [SEQ ID NO:15 (Ac-Ser-Tyr-Ser-Nle-Glu-His-Arg-Phe-Phe-Gly-Lys-Pro-Val)] | 480 nM | – | – |
| B14 | > 100000 nM | – | – |
| B15 | > 100000 nM | – | – |

molecular target: mouse melanocortin-4 receptor (mouse, UniProt P56450 1-332); test: cell-based or functional assay
Sequence (P56450 whole entry): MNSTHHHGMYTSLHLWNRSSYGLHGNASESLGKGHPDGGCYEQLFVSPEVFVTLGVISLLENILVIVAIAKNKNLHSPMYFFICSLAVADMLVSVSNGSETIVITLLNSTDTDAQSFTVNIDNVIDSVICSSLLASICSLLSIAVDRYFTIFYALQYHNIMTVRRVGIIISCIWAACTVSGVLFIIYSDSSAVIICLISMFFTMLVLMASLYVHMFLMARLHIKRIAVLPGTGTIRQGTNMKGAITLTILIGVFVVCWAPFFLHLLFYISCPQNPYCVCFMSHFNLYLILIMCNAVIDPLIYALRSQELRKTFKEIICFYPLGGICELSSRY

| Binder | pA2 (antagonist; Partial agonist) | EC50 (agonist) | EC50 (agonist; Partial agonist) | pA2 (antagonist) |
| --- | --- | --- | --- | --- |
| B3 | 6.1 | – | – | – |
| B4 | – | 0.27 nM | – | – |
| B5 | – | 0.67 nM | – | – |
| B6 | – | 42.6 nM | – | – |
| B7 | – | 260 nM | – | – |
| B1 | – | > 100000 nM | – | – |
| B8 | – | > 100000 nM | – | – |
| B9 | – | – | 15900 nM | – |
| B10 | – | – | – | 6.2 |
| B11 | – | > 100000 nM | – | – |
| B12 | – | > 100000 nM | – | – |
| B13 | – | > 100000 nM | – | – |
| Ac-SYS[Nle]EHRFFGKPV-NH2 [SEQ ID NO:15 (Ac-Ser-Tyr-Ser-Nle-Glu-His-Arg-Phe-Phe-Gly-Lys-Pro-Val)] | – | 930 nM | – | – |
| B14 | – | > 100000 nM | – | – |
| B15 | – | > 100000 nM | – | – |

molecular target: mouse melanocortin-5 receptor (mouse, UniProt P41149 1-325); test: cell-based or functional assay
Sequence (P41149 whole entry): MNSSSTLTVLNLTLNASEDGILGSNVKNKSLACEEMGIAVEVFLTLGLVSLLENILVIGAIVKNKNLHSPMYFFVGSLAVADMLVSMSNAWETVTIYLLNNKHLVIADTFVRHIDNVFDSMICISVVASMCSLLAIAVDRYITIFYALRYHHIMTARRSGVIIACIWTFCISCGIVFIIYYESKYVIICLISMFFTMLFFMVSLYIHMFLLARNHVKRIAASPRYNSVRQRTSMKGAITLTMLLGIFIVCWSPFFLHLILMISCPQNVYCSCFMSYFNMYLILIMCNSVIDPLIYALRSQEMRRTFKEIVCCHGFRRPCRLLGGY

| Binder | EC50 (agonist) | EC50 (agonist; Partial agonist) |
| --- | --- | --- |
| B3 | 239 nM | – |
| B4 | 1.93 nM | – |
| B5 | 0.95 nM | – |
| B6 | 3.43 nM | – |
| B7 | 42.7 nM | – |
| B1 | 100000 nM | – |
| B2 | 450 nM | – |
| B8 | > 100000 nM | – |
| B9 | > 100000 nM | – |
| B10 | > 100000 nM | – |
| B11 | > 100000 nM | – |
| B12 | > 100000 nM | – |
| B13 | – | 24400 nM |
| Ac-SYS[Nle]EHRFFGKPV-NH2 [SEQ ID NO:15 (Ac-Ser-Tyr-Ser-Nle-Glu-His-Arg-Phe-Phe-Gly-Lys-Pro-Val)] | 327 nM | – |
| B14 | > 100000 nM | – |
| B15 | > 100000 nM | – |
